Values of other authors, collected in publication PMC2903477.
pKd: −log10 of the molar value.

Biological target: TrkB (Homo sapiens) (UniProt Q16620)
Sequence of UniProt Q16620 (Q16620 32-430): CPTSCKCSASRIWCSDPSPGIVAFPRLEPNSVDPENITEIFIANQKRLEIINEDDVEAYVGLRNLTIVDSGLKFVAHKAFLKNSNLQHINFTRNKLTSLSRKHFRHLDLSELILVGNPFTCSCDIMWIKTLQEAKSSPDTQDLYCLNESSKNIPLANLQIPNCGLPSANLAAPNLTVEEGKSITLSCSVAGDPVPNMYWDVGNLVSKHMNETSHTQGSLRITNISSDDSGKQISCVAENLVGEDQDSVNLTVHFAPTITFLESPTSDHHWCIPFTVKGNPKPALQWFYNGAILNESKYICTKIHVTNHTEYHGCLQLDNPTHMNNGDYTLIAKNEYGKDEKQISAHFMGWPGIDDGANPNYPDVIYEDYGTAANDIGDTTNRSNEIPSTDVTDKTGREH

pKd: 10.00
Substance: BDNF (from UniProt P23560)
